Experimental data published in patent publication US20230220057A1 (STAIDSON BEIJING BIOPHARMACEUTICALS, published 2023).

target: recombinantly produced human-NGF (human, UniProt P01138 122-241, limits assumed); test: ELISA, human NGF coated, IgG titrated
Procedure: NGF binding ELISA assay: In human NGF binding ELISA, Corning 3366 high binding 96 well plates were coated with recombinantly produced human-NGF at 1 μg per ml, 50 μl/well in 1×PBS, and incubated overnight at 4° C. The plates were washed and blocked with 250 μl of 1×PBS/1% BSA at least 30 minutes at room temperature. 50 μl of culture supernatants, after 1:1 diluted by the PBS/BSA diluent, or the purified antibodies diluted serially from a certain concentration with the diluent, were added per well, and incubated at 37° C. for 2 hours. After washing, a secondary antibody, goat anti-human IgG Fc AP (Southern biotech) was applied at a dilution of 1:3000 in PBS/BSA. The plates were incubated for 1 hour at RT and washed. After adding the PNPP substrate, the ODs at 405 nm were read.
NGF binding ELISA assay: NGF binding ELISA assay was performed as described in Example 1.

recombinantly produced human-NGF, sequence (P01138 122-241 limits assumed): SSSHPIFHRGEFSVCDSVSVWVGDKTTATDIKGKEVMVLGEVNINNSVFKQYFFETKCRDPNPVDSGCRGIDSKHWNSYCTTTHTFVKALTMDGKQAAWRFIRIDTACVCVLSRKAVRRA

Binder	EC50 [ng/mL]
Ab25 (antibody, human IgG1, V domains shown) VH: EVQLVQSGAEVKKPGATVKISCKVSGYSFITYWISWVQQAPGKGLEWMGAIDPSDSDARYSPSFQGRVTITADKSTDTAYMELSSLRSEDTAVYYCAKSDPGYSGYSLLYGFDSWGQGTLVTVSS VL: DVVMTQSPLSLPVTLGQPASISCRSSQSLVQRNGNTYLSWYQQRPGQPPRLLIYQVSNRYSGVPDRFSGSGSGTDFTLKISRVEAEDVGVYYCGQGAHLPLTFGQGTKVEIK	0.0331
Ab38 (antibody, human IgG1, V domains shown) VH: EVQLVQSGAEVKKPGATVKISCKVSGYTFITYWISWVQQAPGKGLEWMGAIDPSDSDARYSPSFQGRVTITADKSTDTAYMELSSLRSEDTAVYYCAKSDPGYSGYSLLYGFDSWGQGTLVTVSS VL: DIVMTQSPLSLPVTLGQPASISCRSSQSLVQRNGNTYLSWYQQRPGQSPRLLIYQVSNRYSGVPDRFSGSGSGTDFTLKISRVEAEDVGVYYCGQGAHLPLTFGQGTKVEIK	0.0252
Ab27 (antibody, human IgG1, V domains shown) VH: EVQLVQSGAEVKKPGATVKISCKVSGYSFITYWISWVQQAPGKGLEWMGAIDPSDSDARYSPSFQGRVTITADKSTDTAYMELSSLRSEDTAVYYCAKSDPGYSGYSLLYGFDSWGQGTLVTVSS VL: DIVMTQSPLSLPVTLGQPASISCRSSQSLVQRNGNTYLSWFQQRPGQSPRLLIYQVSNRYSGVPDRFSGSGSGTDFTLKISRVEAEDVGVYYCGQGAHLPLTFGQGTKVEIK	0.0206
Ab40 (antibody, human IgG1, V domains shown) VH: EVQLVQSGAEVKKPGATVKISCKVSGYTFITYWISWVQQAPGKGLEWMGAIDPSDSDARYSPSFQGRVTITADKSTDTAYMELSSLRSEDTAVYYCAKSDPGYSGYSLLYGFDSWGQGTLVTVSS VL: DIVMTQSPLSLPVTLGQPASISCRSSQSLVQRNGNTYLSWFQQRPGQPPRLLIYQVSNRYSGVPDRFSGSGSGTDFTLKISRVEAEDVGVYYCGQGAHLPLTFGQGTKVEIK	0.0172
Ab33 (antibody, human IgG1, V domains shown) VH: EVQLVQSGAEVKKPGATVKISCKVSGYTFITYWISWVQQAPGKGLEWMGAIDPSDSDARYSPSFQGRVTITADKSTDTAYMELSSLRSEDTAVYYCAKSDPGYSGYSLLYGFDSWGQGTLVTVSS VL: DVVMTQSPLSLPVTLGQPASISCRSSQSLVQRNGNTYLSWFQQRPGQSPRLLIYQVSNRYSGVPDRFSGSGSGTDFTLKISRVEAEDVGVYYCGQGAHLPLTFGQGTKVEIK	0.0342
Ab30 (antibody, human IgG1, V domains shown) VH: EVQLVQSGAEVKKPGATVKISCKVSGYSFITYWISWVQQAPGKGLEWMGAIDPSDSDARYSPSFQGRVTITADKSTDTAYMELSSLRSEDTAVYYCAKSDPGYSGYSLLYGFDSWGQGTLVTVSS VL: DIVMTQSPLSLPVTLGQPASISCRSSQSLVQRNGNTYLSWFQQRPGQPPRLLIYQVSNRYSGVPDRFSGSGSGTDFTLKISRVEAEDVGVYYCGQGAHLPLTFGQGTKVEIK	0.0254
Ab28 (antibody, human IgG1, V domains shown) VH: EVQLVQSGAEVKKPGATVKISCKVSGYSFITYWISWVQQAPGKGLEWMGAIDPSDSDARYSPSFQGRVTITADKSTDTAYMELSSLRSEDTAVYYCAKSDPGYSGYSLLYGFDSWGQGTLVTVSS VL: DIVMTQSPLSLPVTLGQPASISCRSSQSLVQRNGNTYLSWYQQRPGQSPRLLIYQVSNRYSGVPDRFSGSGSGTDFTLKISRVEAEDVGVYYCGQGAHLPLTFGQGTKVEIK	0.0331
Ab29 (antibody, human IgG1, V domains shown) VH: EVQLVQSGAEVKKPGATVKISCKVSGYSFITYWISWVQQAPGKGLEWMGAIDPSDSDARYSPSFQGRVTITADKSTDTAYMELSSLRSEDTAVYYCAKSDPGYSGYSLLYGFDSWGQGTLVTVSS VL: DIVMTQSPLSLPVTLGQPASISCRSSQSLVQRNGNTYLSWYQQRPGQPPRLLIYQVSNRYSGVPDRFSGSGSGTDFTLKISRVEAEDVGVYYCGQGAHLPLTFGQGTKVEIK	0.0292
Ab39 (antibody, human IgG1, V domains shown) VH: EVQLVQSGAEVKKPGATVKISCKVSGYTFITYWISWVQQAPGKGLEWMGAIDPSDSDARYSPSFQGRVTITADKSTDTAYMELSSLRSEDTAVYYCAKSDPGYSGYSLLYGFDSWGQGTLVTVSS VL: DIVMTQSPLSLPVTLGQPASISCRSSQSLVQRNGNTYLSWYQQRPGQPPRLLIYQVSNRYSGVPDRFSGSGSGTDFTLKISRVEAEDVGVYYCGQGAHLPLTFGQGTKVEIK	0.0208
Ab32 (antibody, human IgG1, V domains shown) VH: EVQLVQSGAEVKKPGATVKISCKVSGYTFITYWISWVQQAPGKGLEWMGAIDPSDSDARYSPSFQGRVTITADKSTDTAYMELSSLRSEDTAVYYCAKSDPGYSGYSLLYGFDSWGQGTLVTVSS VL: DIVMTQTPLSSPVTLGQPASISCRSSQSLVQRNGNTYLSWYQQRPGQPPRLLIYQVSNRYSGVPDRFSGSGAGTDFTLKISRVEAEDVGVYYCGQGAHLPLTFGQGTKVEIK	0.0403

Now from value to binder:

EC50 [ng/mL]	Binder
0.11	Ab34 (antibody, human IgG1, V domains shown) VH: EVQLVQSGAEVKKPGATVKISCKVSGYTFITYWISWVQQAPGKGLEWMGAIDPSDSDARYSPSFQGRVTITADKSTDTAYMELSSLRSEDTAVYYCAKSDPGYSGYSLLYGFDSWGQGTLVTVSS VL: DVVMTQSPLSLPVTLGQPASISCRSSQSLVQRNGNTYLSWYQQRPGQSPRLLIYQVSNRYSGVPDRFSGSGSGTDFTLKISRVEAEDVGVYYCGQGAHLPLTFGQGTKVEIK
0.0192	Ab41 (antibody, human IgG1, V domains shown) VH: EVQLVQSGAEVKKPGESLKISCKGSGYSFITYWISWVRQMPGKGLEWMGAIDPSDSDARYSPSFQGQVTISADKSISTAYLQWSSLKASDTAMYYCAKSDPGYSGYSLLYGFDSWGQGTLVTVSS VL: DIVMTQTPLSSPVTLGQPASISCRSSQSLVQRNGNTYLSWLQQRPGQPPRLLIYQVSNRYSGVPDRFSGSGAGTDFTLKISRVEAEDVGVYYCGQGAHLPLTFGQGTKVEIK
0.0234	Ab26 (antibody, human IgG1, V domains shown) VH: EVQLVQSGAEVKKPGATVKISCKVSGYSFITYWISWVQQAPGKGLEWMGAIDPSDSDARYSPSFQGRVTITADKSTDTAYMELSSLRSEDTAVYYCAKSDPGYSGYSLLYGFDSWGQGTLVTVSS VL: DVVMTQSPLSLPVTLGQPASISCRSSQSLVQRNGNTYLSWFQQRPGQPPRLLIYQVSNRYSGVPDRFSGSGSGTDFTLKISRVEAEDVGVYYCGQGAHLPLTFGQGTKVEIK
0.0502	Ab31 (antibody, human IgG1, V domains shown) VH: EVQLVQSGAEVKKPGATVKISCKVSGYTFITYWISWVQQAPGKGLEWMGAIDPSDSDARYSPSFQGRVTITADKSTDTAYMELSSLRSEDTAVYYCAKSDPGYSGYSLLYGFDSWGQGTLVTVSS VL: DIVMTQTPLSSPVTLGQPASISCRSSQSLVQRNGNTYLSWLQQRPGQPPRLLIYQVSNRYSGVPDRFSGSGAGTDFTLKISRVEAEDVGVYYCGQGAHLPLTFGQGTKVEIK
0.0308	Ab35 (antibody, human IgG1, V domains shown) VH: EVQLVQSGAEVKKPGATVKISCKVSGYTFITYWISWVQQAPGKGLEWMGAIDPSDSDARYSPSFQGRVTITADKSTDTAYMELSSLRSEDTAVYYCAKSDPGYSGYSLLYGFDSWGQGTLVTVSS VL: DVVMTQSPLSLPVTLGQPASISCRSSQSLVQRNGNTYLSWYQQRPGQPPRLLIYQVSNRYSGVPDRFSGSGSGTDFTLKISRVEAEDVGVYYCGQGAHLPLTFGQGTKVEIK
